# Reference: paper PMC7596504, “Molecular mechanism of the MORC4 ATPase activation” (Nature Communications, 2020)
# Numbering of substitutions follows the chain as printed. Names and notes keep the numbering of the source.
# T1: MORC4 CW domain (Homo sapiens, UniProt Q8TE76)
# T1 construct: The CW domain (aa 417–475) of MORC4 was cloned into a pGEX 6p-1 vector; GST (N, cleaved yes); made in house; host or cells: E. coli Rosetta2 (DE3) pLysS or BL21 (DE3) RIL
# T1 sequence (Q8TE76 417-475): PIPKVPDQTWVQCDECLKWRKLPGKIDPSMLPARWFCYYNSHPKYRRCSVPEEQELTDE
# B1: MORC4 K460A/R462A/R463A: mCherry-tagged MORC4 triple mutant with disrupted DNA-binding activity of CW (protein, UniProt Q8TE76 1-937, looked up, variant K460A R462A R463A)
# MORC family CW-type zinc …: MLLYRGAPAGPGAPGCGLARPGGGPQAFGIRLSTMSPRYLQSNSSSHTRPFSAIAELLDNAVDPDVSARTVFIDVEEVKNKSCLTFTDDGCGMTPHKLHRMLSFGFTDKVIKKSQCPIGVFGNGFKSGSMRLGKDALVFTKNGGTLTVGLLSQTYLECVQAQAVIVPIVPFNQQNKKMIITEDSLPSLEAILNYSIFNRENDLLAQFDAIPGKKGTRVLIWNIRRNKNGKSELDFDTDQYDILVSDFDTEEKMTGGVTSELPETEYSLRAFCGILYMKPRMKIFLRQKKVTTQMIAKSLANVEYDTYKPTFTNKQVRITFGFSCKNSNQFGIMMYHNNRLIKSFEKVGCQVKPTRGEGVGVIGVIECNFLKPAYNKQDFEYTKEYRLTINALAQKLNAYWKEKTSQDNFETSTVARPIPKVPDQTWVQCDECLKWRKLPGKIDPSMLPARWFCYYNSHPAYAACSVPEEQELTDEDLCLSKAKKQEQTVEEKKKMPMENENHQVFSNPPKILTVQEMAGLNNKTIGYEGIHSPSVLPSGGEESRSPSLQLKPLDSSVLQFSSKYKWILGEEPVEKRRRLQNEMTTPSLDYSMPAPYRRVEAPVAYPEGENSHDKSSSERSTPPYLFPEYPEASKNTGQNREVSILYPGAKDQRQGSLLPEELEDQMPRLVAEESNRGSTTINKEEVNKGPFVAVVGVAKGVRDSGAPIQLIPFNREELAERRKAVESWNPVPYSVASAAIPAAAIGEKARGYEESEGHNTPKLKNQRELEELKRTTEKLERVLAERNLFQQKVEELEQERNHWQSEFKKVQHELVIYSTQEAEGLYWSKKHMGYRQAEFQILKAELERTKEEKQELKEKLKETETHLEMLQKAQVSYRTPEGDDLERALAKLTRLRIHVSYLLTSVLPHLELREIGYDSEQVDGILYTVLEANHILD
# modifications: mCherry tag
# B2: MORC4 W435A: mCherry-tagged full-length MORC4 W435A mutant, in which the structure of the CW domain is disrupted (protein, UniProt Q8TE76 1-937, looked up, variant W435A)
# chain: B1 MORC family CW-type zinc … with W435A, A460K, A462R, A463R
# modifications: full-length mCherry tag
# B3: E56A/W435A: dual mutant of mCherry-tagged MORC4 (protein, UniProt Q8TE76 1-937, looked up, variant E56A W435A)
# chain: B1 MORC family CW-type zinc … with E56A, W435A, A460K, A462R, A463R
# modifications: full-length mCherry tag
# notes: dual mutant of mCherry-tagged MORC4
# B4: LexA: transcription factor LexA, expressed in E. coli (protein, UniProt P0A7C2 1-202, looked up)
# LexA repressor: MKALTARQQEVFDLIRDHISQTGMPPTRAEIAQRLGFRSPNAAEEHLKALARKGVIEIVSGASRGIRLLQEEEEGLPLVGRVAAGEPLLAQQHIEGHYQVDPSLFKPNADFLLRVSGMSMKDIGIMDGDLLAVHKTQDVRNGQVVVARIDDEVTVKRLKKQGNKVELLPENSEFKPIVVDLRQQSFTIEGLAVGVIRNGDWL
# Assays:
# HEK293T cells [1] = experiment: Cell cycle analysis by flow cytometry; type: cell-based; conditions: for effect on S phase (words): 48-h overexpression, vs control cells; for percent of cells in S phase: 48-h overexpression of mCherry-tagged protein, EdU/PI, average of three independent experiments, control 34.5%
# Protocol: For DNA content analysis, 10^6 cells previously transfected with mCherry MORC4 constructs and labeled with 25 µM Ethynyl deoxyUridine (EdU) for 1 h in 100 µL were washed with PBS (NaCl 137 mM, KCl 2.7 mM, Na2HPO4 10 mM, KH2PO4 1.8 mM) and fixed in ice cold 70% ethanol overnight. Fixed cells were washed and resuspended in PBS containing 0.05% NP40 and incubated at room temperature for 30 min. Cells were again washed with PBS. Cells were resuspended in Alexa Fluor 647 click staining solution (100 mM Tris pH 7.6, 4 mM CuSO4, 3 µM AF647 azide, 100 mM Sodium Ascorbate) for 1 h. Following staining, cells were washed with PBS and then stained for total DNA content using 10 μg/mL propidium iodide (PI) and 0.2 mg/ml RNase A for 60 min before analysis on a FACScan instrument. Data were analyzed using FlowJo (Version 10) with cells gated to remove doublets. EdU vs PI plots were gated in quadrants to identify G1, early S, late S and G2/M cells. S phase fractions were summed for total S phase population. […]
# MORC4 CW domain = target: T1, MORC4 CW domain; experiment: 1H,15N HSQC NMR titration of MORC4 CW; type: binding; conditions: Supplementary Fig. 12
# Protocol: NMR experiments were carried out at 298 K on a Varian INOVA 600 and 900 MHz spectrometers. His-tagged MORC4 ATPase (1–411) was expressed and purified as described above and used without cleavage of the tag. NMR samples contained 0.1 mM uniformly ^15N-labeled WT or mutated CW in 20 mM Tris-HCl (pH 7) buffer supplemented with 100 mM NaCl, 5 mM DTT, and 10% D2O. Binding was characterized by monitoring CSPs in the proteins induced by H3 peptides or the ATPase domain. For the CWKRR mutant, NMR experiments were performed in 20 mM Tris-HCl (pH 6.8) buffer supplemented with 150 mM NaCl, 2 mM DTT, and 10% D2O.
# HEK293T cells [2] = experiment: MORC4 localization and nuclear bodies (confocal microscopy); type: cell-based; conditions: live cells, confocal microscopy, 48 h post transfection
# Protocol: WT mCherry-MORC4, mCherry-MORC4 E56A, mCherry-MORC4 W435A, mCherry-MORC4 E56A/W435A, mCherry-MORC4 K460A/R462A/R463A, or mCherry control plasmid were transfected into 2 million 293T-HEK cells seeded on 25 mm circular coverslips (Carolina Biological Supply Item#: 633057) in 10-cm-diameter tissue culture dish by Lipofectamine 3000 (Life Technology, L3000-075) following the manufacturer’s instructions. Two days after transfection, cells were stained with Hoechst […] for 30 min and imaged live on a ZeissAxiovert 200 M inverted microscope fitted with a ×40 oil objective. Images were acquired with Slidebook 6 software and exported for analysis in Image J.
# mCherry foci sizes were calculated using ImageJ image processing program (version 1.51) using the Analyze Particle tool. mCherry particle sizes were collected for MORC4 WT and MORC4 W435A transfected cells. Data were plotted with R (version 3.4.1) using ggplot2 (version 3.2.1). Cell size and mCherry foci count per cell were calculated using CellProfile cell image analysis software (version 3.1.5) to identify nuclei and mCherry foci, relate mCherry foci to nuclei containing them and measure the size of nuclei and number mCherry foci contained. Data were plotted with R (version 3.4.1) using ggplot2 (version 3.2.1).
# NCP147 = experiment: FRET, LexA titration into Cy3-Cy5 labeled NCP147; type: binding; conditions: mean of n = 3
# Protocol: Histone octamers unlabeled or labeled with Cy5 at H2AK119 were prepared as previously described. NCPs were reconstituted by combining octamer with 1.25× excess DNA and performing slow salt dialysis. Free DNA was then separated from fully reconstituted NCPs by sucrose gradient purification. NCPs for fluorescence polarization assays were reconstituted from unlabeled octamer and 207 bp DNA containing the 601 Widom sequence flanked with a 30 bp linker on either side and internally labeled with Fluorescein 27 bp in from the 5′ end. Cy3-Cy5 labeled NCPs for FRET assays were reconstituted with Cy5 labeled octamer plus either 147 bp 601 Widom DNA containing a LexA transcription factor binding site at bases 8–27[34], or 252 bp DNA containing the 601 Widom sequence with a 75 bp linker at the 3′ end, a 30 bp linker at the 5’ end, and a Gal4 transcription factor binding site at bases 8–26 in the 601 Widom sequence. The 147 bp LexA-binding DNA was labeled with Cy3 on the 5′ end, and the 252 bp Gal4-binding DNA was internally labeled with Cy3 34 bp in from the 5′ end.
# LexA was expressed in E. coli, separated from genomic DNA and the proteome by polyethyleneimine precipitation, and salted out with ammonium sulfate. LexA was resuspended in buffer A (20 mM potassium phosphate pH 7, 0.1 mM EDTA, 10% glycerol, 1 mM DTT) + 200 mM NaCl and purified by a linear gradient to A + 800 mM NaCl over either a cellulose phosphate or HiTrap Heparin HP column. […]
# Cy3-Cy5 NCP FRET efficiency measurements were carried out on a Horiba Scientific Fluoromax 4. […] LexA titrations were carried out in 20 mM Tris pH 7.5, 75 mM NaCl, 10% glycerol, 0.00625% Tween 20 buffer with 5 nM 147 bp Cy3-Cy5 NCPs mixed in 20 µL reaction volumes and allowed to incubate for 5 mins at 4 °C before FRET of the sample was measured. […] Gal4 (1–147) titrations were carried out in 10 mM Tris pH 8, 130 mM NaCl, 10% glycerol, 0.0075% Tween 20 buffer with 1 nM 252 bp Cy3-Cy5 nucleosomes mixed in 60 µL reaction volumes and allowed to incubate for 10 mins at room temperature before FRET of the sample was measured. […]
molecule,measurement,setting,value
B1,effect on S phase (words),HEK293T cells [1],increased percent of cells in S phase
same,effect on S phase (words),HEK293T cells [1]; listed as K460A/R462A/R463A,no significant effect was observed
B2,structure of the CW domain,MORC4 CW domain,the structure of the CW domain is disrupted
same,subcellular localization,HEK293T cells [2],dispersed throughout the cell
same,percent of cells in S phase,HEK293T cells [1],36.5%
B3,percent of cells in S phase,HEK293T cells [1],35.8%
B4,S1/2,NCP147; +1 μM MORC4 ATPaseCW,2.4 ± 0.4 µM
same,S1/2,"NCP147; without MORC4, 5 nM NCP147, pH 7.5, 75 mM NaCl, 4 °C, 5 min",0.9 ± 0.2 µM
